# Data from IntAct's records for PubMed 11102519.
# B1: Transmembrane 4 L6 family member 1 (Homo sapiens), P30408 (parent)
# chain: MCYGKCARCIGHSLVGLALLCIAANILLYFPNGETKYASENHLSRFVWFFSGIVGGGLLMLLPAFVFIGLEQDDCCGCCGHENCGKRCAMLSSVLAALIGIAGSGYCVIVAALGLAEGPLCLDSLGQWNYTFASTEGQYLLDTSTWSECTEPKHIVEWNVSLFSILLALGGIEFILCLIQVINGVLGGICGFCCSHQQQYDC
# partner: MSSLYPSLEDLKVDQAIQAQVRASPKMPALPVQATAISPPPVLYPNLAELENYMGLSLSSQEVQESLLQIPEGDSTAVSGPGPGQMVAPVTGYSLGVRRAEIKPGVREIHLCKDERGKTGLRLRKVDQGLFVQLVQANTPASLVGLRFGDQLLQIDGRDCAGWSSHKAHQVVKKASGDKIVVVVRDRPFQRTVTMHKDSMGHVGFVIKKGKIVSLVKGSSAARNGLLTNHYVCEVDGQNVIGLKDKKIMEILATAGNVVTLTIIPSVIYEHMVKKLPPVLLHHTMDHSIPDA
# Variants of: B1
# Conditions: with sdcb2_human SDCBP2, Q9H190
row,effect of a mutation on the interaction,Variant
1,disrupting interaction strength,MCYGKCARCIGHSLVGLALLCIAANILLYFPNGETKYASENHLSRFVWFFSGIVGGGLLMLLPAFVFIGLEQDDCCGCCGHENCGKRCAMLSSVLAALIGIAGSGYCVIVAALGLAEGPLCLDSLGQWNYTFASTEGQYLLDTSTWSECTEPKHIVEWNVSLFSILLALGGIEFILCLIQVINGVLGGICGFCCSHQQQYDG [C202G]
